Data published in the nanobody polyreactivity screen of Harvey et al. (2022).

Experiment: yeast display, Sf9 membrane polyspecificity reagent, FACS + sequencing; frameworks hold sequencing errors
Method in brief: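 Galactose induction of a Saccharomyces cerevisiae BJ5465 synthetic nanobody display library ran 36–48 hours. The cells were then stained for 1 hour at 4 °C with 10% biotinylated, detergent-solubilized Sf9 membrane reagent, pulled down on streptavidin microbeads and FACS-sorted into low and high (top ~1%) gates on expression and reagent-binding fluorescence. Labels for polyreactivity follow the gate of origin.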

Row | Sequence | polyreactivity (PSR sort gate)
1 | QVQLVESGGGLVQAGGSLRLSCAASGRLFYYNAMGWYRQAPGKERELVAAISWSGGSTYYADSVKGRFTISRDNAKNTVYLQMNSLKPEDTAVYYCAVDVYGYTPRPTREPLIYEYWGQGTQVTVSS | low polyreactivity
2 | QVQLIESGGGLVQAGGSLRLSCAASGSIFAANAMGWYRQAPGKEREFVASISYTGASTYADSVKGRFTISRDNAKNTVYLQINSLKPEDTAVYYCAKDGYWTGLDPYYYWGQGTQVTVSS | low polyreactivity
3 | QVQLVESGGGLVQAGGSLRLSCAASGRIFSYYTLGWYRQAPGKERELVAAIRISSGGTYYADSVKGRFTISRDNAKNTVYLQMNSLKPEDTAVYYCAARYYGFPSKYDYWGQGTQVTVSS | high polyreactivity
4 | QVQLVESGGGLVQAGGSLRLSCAASGSIIVRYAMGWYRQAPGKERELVATITFRDTSTYYADSVKGRFTISRDNAKNTVYLQMNSLKPEDTAVYYCAAVRADLWDIARYDYWGQGTQVTVSS | low polyreactivity
5 | QVQLVESGGGLVQAGGSLRLSCAASGRIFYGNALGWYRHAPGKERELVATISSSGGRTTYADSVKGRFTISRDNAKNTVYLPMNSLKPEDTAVYYCAAQGYWTGYDYWGQGTQVTVSS | high polyreactivity
6 | QVQLVESGGGLVQAGGSLRLSCAASGFTFYGYVMGWSRQAPGKERDLVAAITRGGNTYYADSVKGRITISRDNAKNTVYLQMNSLKPEDTAVYYCARDRSYWDKPRQRDGYWGQGTQVTVSS | low polyreactivity
7 | QDQLVESGGGLVQAGGSLRLSCAASGSTFWFYAMGWSRQAPGKEWELVAVISNSGSTYYADSVKGRFTISRDNAKNTVYLQLNSLKPEDTAVYYCNTDGGGDSYWYDYWGQGTQVTVSS | low polyreactivity
8 | QVQLVESGGGLVQAGGSLRLSCAASVRTFKYYAMGWYRQAPGKERELVAAISWSGSSTYYADSVKGRFTISRDNAKNTVDLPMNSLKPEDPAVYYCAAATYRQFTGTYDYWGQGTQVTVSS | high polyreactivity
9 | QVQLVESCGGLVQAGGSLRLSCAASGGTFGPNAMGWYRQAPGKERELVARISTSGGSTTYYADSVKGRFTISRDNAKNTFYLHMNSLKPEDTAVYYCAADYKPYYRRRYDYWGQGTQVTVSS | low polyreactivity
10 | QVQLVESGGGLVQAGGRLRLSCAASGRIFVRYVMGWYRQAPGKERELVAAISGGGSSTYYADSVKGRFTISRDNAKNTVYLQMNSLKPVDTAVYYCAAKGTRQPRFDFWGQGTQVTVSS | high polyreactivity
11 | HVQLVESGGGLVQAGGSLRLSCAASGSTVRRYAMGWYRQAPGKEREFVASITWRGGGTYYADSVKGRFTISRDNAKNTVYLQMNSLKPEETAVYYCASATQVRGHSLPYGYWGQGTQVTVSS | high polyreactivity
12 | QVQVVESGGGLVQAGGSLRLSCAASGFTFDYYNMGWYRQAPGKERELVAAITSGASTNYADSVKGRFTISRDNAKNTVYLQMNSLKPEDTAVYYCAAVLAGGVYWVVHYDYWGQGTQVSVSS | low polyreactivity
13 | QVQLVESGGCLVQAGGSLRLSCAASGSIFGTYTMGWYRQAPGKERELVATISNSGGNTYADSVKGRFTISRDNAKNTVNLQMNSLKPEDTAVYYCAVVGGEFSSYGYWGQGTQVTVSS | low polyreactivity
14 | QVQLVESGGGLVQAGGSLRLSCAASGFTFGYYAMGWYRQAPGKERELVAAITYSGGSTYYADSVKGRFTISRDNAKNTVYLQMNSLKPEDTAVYYCNAYARRYYYGRWYGEFDYWGQGTQVTVSS | low polyreactivity
15 | QVQLVESGGGLVQAGGSLRLSCAASGFTFIDNTMGWYRQAPGKERELVAAISSDGRTNYAVSVKGRFTISRDNAKNTVYLQMNSLKAEDTAFYYCATEDNYWYVTGDLYHSAFYYWGQGTQVTVSS | low polyreactivity
16 | QVQLVESGGGLVQAGGSLRLSCAASGFTFTTNAMGWYRQAPGKERELVAAISFSGGTTYYADSVKGRFTISRDNAKNTVYLQMNSLKPEDTAVYYCPAQPGQAWWSTEHDDYWGQGTQVTVSS | low polyreactivity
17 | QVQLVESCGGLVQAGGSLRISCAASGLTIRYYAMGWYRHAPWKERELVAAISWSGGSTYYADSVKGRFTISRDNAKNTVYLLMNILKPEDTAVYYCNTVGRSSSLSVFLIGYGYWGQGTQVNVSS | high polyreactivity
18 | QVQLVESGGGLVQAGGSLRLSCAASGRTFRQYAMGWYRQAPGKERELVAAISSSGGRTYYADSVKGRFTISRDNAKNTVYLQMNSLKPEDTAVYYCNAARYSYCFDSWGQGTQVTVSS | high polyreactivity
19 | QVQLVESGGGLVQAGGSLRLSCAASGSTFVRYAMGGYRQAPGKERELVAAISWSGASTYYADSVKGRFTISRDNAKNTVYLQMNSLKPEDTAVYYCAARSRWYDAAGYPKYYYWGQGTQVTVSS | high polyreactivity
20 | QVQLVESGGGLVQAGGSLRLSCAASGLTFWRYTMGWYRHAPGKERELVATIRRGTSTNYADSVKGRFTISRDNAKNTVYLQMNSLKPEDTAVYYCAAVPWRYYVEYDYWGQGTQVTVSS | high polyreactivity
21 | QVQLVESGGGLVQAGGSLRIICAASGRTLSGYAMGWYRQAPGKERELVAAISSDGRTYYADSVKGRFTISRDNAKNTVYLQMNSLKPEDTAVYYCAARANPYVLKYYYWGQGTQVTVSS | high polyreactivity
22 | QVQLVESGGALVQAGGSLRLSCAASGSIFYWYAMGWYRQAPGKEREFVAGITGRGGSTYYADSVKGRFTISRDNAKNTVYLQMNSLKPEDTAVYYADFVKYGKYYQRYDYWGQGTQVTVSS | high polyreactivity

Row | Sequence | polyreactivity (PSR sort gate)
23 | QVQLVESGGGLVQAGGSLRLSCAASGRIFSLNAMGWYRQAPGNERELVAGNRKRGGSTYYADSVKGRFTISRDNAKNTLYLQMNSLKPEDTAVYYCAAQPALTYRFYYWGQGTQVTVSS | high polyreactivity
24 | QVQLVESGGGLDQAGGSLRLSCADSGSIFESYAMGWYRQAPGKERELVAAITKRGGSTYYADSVKGRFTISRDNAKNTVYLQMNSLKPEDTAVYYCNARWPGIGPIYDYWGQGTQVTVSS | low polyreactivity
25 | QVQLVESGGGLVQARGSLRLSCAASGSIFGYNVMGWYRQAPGIERELVAAITVNGGRTYYADSVKGRFTISRDNAKNTVYLQMNSLIPEDTAVDDCAARVTGTQRSGYYWGQGTQVTVSS | high polyreactivity
26 | QVQLVESGGGLVQAGGSLRLSCAASGSTFSKYAMGWYRQAPGKERELVAAITWRASTYYADSVKGRFTISRDNAKNTVYLQMNSLKPEDTAVYYCAVRQSQRGGTSSNTSNDYWGQGTQVTVSS | high polyreactivity
27 | EEELVESGGGLVQAGGSSLRLSCAASGFIFVSNAMGWYRQAPGKERELVASIRWSDGSTFYADSVKGRFTISRDNAKNTVYLQMNSLKPEDTAVYYCNAVYEHRRVGWVTIDYGYWGQGTQVTVSS | low polyreactivity
28 | QVQLVESGGGLVQAGGSLRLSCAASGGNFRLYAMGWYSPAPGKERELVAAINGGGSTNYADSVKGRFTISRDNAKNTVYLQMNSLKPEDTAVYYCNAVQYYRFQVYEYDYWGQGTQVTVSS | high polyreactivity
29 | QVQLVESGGGLVQAGGSLRLSCAASGSTFYKYTMGWYRQAPGKERELVAAISGSGTTTYYADSVKGRFTISRDNAKNTVYLQMNSLKPEDTAVYYCAARRFSPGSSGHGYWGQGTQVTVSS | high polyreactivity
30 | QVQLVESGGGLVQAGGSLRLSCAASGRIFRSNAMGWYRQAPGKERELVATITRSGGSTYYADSVKGRFTISRDNAKNTVYLQMNSLKPEDTAVYYCNAVFGSAYRAQRIMGYWGQGTQVTVSS | high polyreactivity
31 | QVQLVETGGGLVQAGGSLRLSCAASGFILDYNAKGWYRQAPGKERELVAAITSGGSTNYSDSVKGRFTISRDNAKNTVYLQMNSLKPEDTAVYYCNVRSVSPVHDDGSWGQGTQVTVSS | low polyreactivity
32 | QVQLVESGGGLVQAGGSLRLSWAASGSTFEYNVMGWYRQAPGKERELVAAITQGDGGSTYYADSVKGRFTISRDNAKKTVYLQKNSLIPEDTAVYYCNAGYFTEYNSWGQGTEVTVSS | high polyreactivity
33 | QVQLQVSGGDLLQAGGSLRLSCAASGTIYGHTSMGWYRQAPGKEREFVAAITDGGNTNYADSVKGRFTISRDNAINTVYLQMISLKPEDTAVYYCEVLFSDVAYYAYWGQGTQVTVSS | low polyreactivity
34 | QVRLVESGGGLVQAGGSLRLSCAASGRTFTHNVMGWYRQAPGKERELVAGISSTGGSTYYADSVKVRFTISRDNAKNTVYLQMNSRKPEDPAVYYCNADYASYYRYSRPLEMNYWGQGTQVTVSS | low polyreactivity
35 | QVQLVDSGGGLVQAGGSLRLSSAASGFIFQANAMGSSRQAPGKERELVAAIDDGDSTYADSVKGRFTISRDNAKNSVYLQMNSLKPEDTAVYYCATRRNRSYDYWGQGTQVTVSS | low polyreactivity
36 | QVQLVESGGGLVQAGGSLRLSCAASGITLRRNAMGWYRQATGKERELVAAISWSGGRTYYADSVKGRFTISRDNAKNTVYLQMNSLKPEDTAVYYCAARGYPLTAIDYWGQGTQVTVSS | high polyreactivity
37 | QVQLVESGGGLVQAGGSLRLSCAASGRIFGYYMGWYRQAPGKERELVARITFRGGSTYYADSVKGRFTISRDNAKNTVYLQMNSLKPEDTAVYYCNASGKGGSTNRSDYWGQGTQVTVSW | high polyreactivity
38 | QVQLVETGGGLFQAGVSLRLSCAASGSTFDGYVMGWYRQAPGKERELVAAISGSGGSTYYADSVKGRFTISRDHAQNTDYLQMISLKPEDTAVYYCAADSWWYDDYSEGDYWGQGTQVTVSS | low polyreactivity
39 | QVQLVESGGGLVQAGGSLRLSCAASGSTFDPNTMGWYRQAPGKERELVAAITSSTASTYYADSVKGRFTISRDNAKNTVYLQMNSLKPEDTAVYYCAADSEQDNLRYYRWVWYYYWGQGTQVTVSS | low polyreactivity
40 | QVQLVESGGGLVQAGGSLRLSCAASGRIFHLYAMGWYRQAPGKERELVATINYEGGSTYYADSVKGRFTISRDNAKDTVYLQMNSLKPEDTAVYYCAADGYQDKYYWLETWVGYWGQGTQVTVSS | low polyreactivity
41 | QVQLVESGGGLVQAGGSLRLSSAASGRIFYYNAMGWYSQAPGKERELVAAITRGGSTYYADSVKGRFTISRDNAKNTVYLQMNSLKPEDTAVYYCAAYLDYWSYLNGQYDYWGQGTQVTVSS | high polyreactivity
42 | QVQLVESGGALVQAGGSLRLICAASGRIFPRNVMGWYRQAPGKERELVAAISSRGTRTYYADSVKGRFTISRDNAKNTVYLQMYSLKPEDTAVYYCAADGPYEGYDYWGQGTQVTVSS | high polyreactivity
43 | QVQLVESGGGLVQAGGSLRLSCAAYGFIFSYYAMGWFRQAPGKEREFVATITWRGGSTYYADSVKGRFTISRDNAKNTVYLQMNSLKPEDTAVYYCAARKRTPGYGYWGQGTQVTVSS | high polyreactivity
